The target in test [1] is T1, human mature TGFβ3 (Homo sapiens, UniProt P10600). The experiment in a line: cell-based or functional assay.
Test [2] has as its target T2, human mature TGFβ2 (PeproTech) (Homo sapiens, UniProt P61812). Nature of the test: cell-based or functional assay.
Test [3] deals with T3, human mature TGFβ1 (Homo sapiens, UniProt P01137). The experiment in a line: cell-based or functional assay.
In test [4] the target is T1, human mature TGFβ3. The experiment in a line: SPR; Biacore T200; antibody captured on a Protein A sensor chip (about 90 RU); mature TGFβ isoform injected, five-fold dilutions 0.008 nM to 5 nM; HBS-EP pH 7.4, 150 mM NaCl; 37 °C; 100 μl/min; 3 min association, 60 min dissociation; one-to-one Langmuir model, global fit. As to conditions: both partners purified. (In general: Surface plasmon resonance follows binding to a sensor surface in real time, without labels.)

For test [5], the target named is T2, human mature TGFβ2 (PeproTech). The test is described as above. As to conditions: both partners purified.
The target in test [6] is T3, human mature TGFβ1. Described as above. As to conditions: both partners purified.

In general, Kd refers to the concentration at which binding is half-saturated. Higher therefore signals weaker binding.

T3 sequence (P01137 279-390): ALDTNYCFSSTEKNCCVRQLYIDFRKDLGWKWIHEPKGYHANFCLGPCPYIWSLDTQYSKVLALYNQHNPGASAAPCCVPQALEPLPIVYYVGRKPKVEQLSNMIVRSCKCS
T1 sequence (P10600 301-412): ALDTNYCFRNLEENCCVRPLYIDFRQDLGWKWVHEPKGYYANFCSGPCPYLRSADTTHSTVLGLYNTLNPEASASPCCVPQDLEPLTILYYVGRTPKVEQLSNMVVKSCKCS

B1: humanized 4A11 variant 3 (antibody, V domains shown)
VH: EQQLQESGPGLVKPSETLSLTCTVTGFSLSSYTVNWVRQPAGKGLEWIGYISYGGSAYYASWANGRFTISKDSSKNQVSLKLSSVTAADTAVYFCARHMQVGGAPTGSMAAFDPWGPGTLVTVSS
VL: DAVLTQSPDSLAVSLGERATINCQSSQSVYNNNYLSWFQQKPGQPPKLLIYGASTLTSGVPDRFSGSGSGTDFTLTISSLQAEDVAVYYCAGGYSGSSDKYAFGGGTKVEIK
notes: as the VH of m12 (h4A11.v7): rbt4A11 CDRs and rabbit Vernier residues grafted on human germline IGHV4-59*06; as the VL of m6 (h4A11.v1): rbt4A11 CDRs and rabbit Vernier residues grafted on human germline IGKV4-1*01; human IgG1; also called h4A11.v3; v3; source: Expi293F, transient, purified (Protein A, SEC)
For the molecule B1, in the test with human mature TGFβ3 [1], the “TGFβ inhibition by HEK-Blue cells (IC50: nM), TGFb3; Blocking: Complete” value (“TGFβ inhibition … TGFb3; Blocking: Complete” below) came out at 0.2 nM. The “TGFβ inhibition by HEK-Blue cells (IC50: nM), TGFb2; Blocking: Complete” value (from here on “TGFβ inhibition … TGFb2; Blocking: Complete”) in test [2] was found to be 3.9 nM. In the test with human mature TGFβ1 [3], the “TGFβ inhibition by HEK-Blue cells (IC50: nM), TGFb1” value (shortened to “TGFβ inhibition … TGFb1”) is over 667 nM. Also, the Kd with human mature TGFβ3 [4] was 0.0121 nM; in test [5], 9.6 pM; with human mature TGFβ1 [6], over 5 nM. Also, the binding result with human mature TGFβ1 [6] is recorded as “no binding (tested: 5 nM)”.

B2: humanized 4A11 variant 1 (antibody, V domains shown)
VH: EQQLVESGGGLVQPGGSLRLSCAVSGFSLSSYTVNWVRQAPGKGLEWIGYISYGGSAYYASWANGRFTISKDSAKNSVYLQMNSLRAEDTAVYFCARHMQVGGAPTGSMAAFDPWGPGTLVTVSS
VL: DAVLTQSPDSLAVSLGERATINCQSSQSVYNNNYLSWFQQKPGQPPKLLIYGASTLTSGVPDRFSGSGSGTDFTLTISSLQAEDVAVYYCAGGYSGSSDKYAFGGGTKVEIK
notes: as the VH of m7 (h4A11.v2): rbt4A11 CDRs and rabbit Vernier residues grafted on human germline IGHV3-48*01; rbt4A11 CDRs and rabbit Vernier residues (VL positions 2, 4, 36, 43, 58) grafted on human germline IGKV4-1*01; human IgG1; also called h4A11.v1; v1; source: Expi293F, transient, purified (Protein A, SEC)
On to B2, for which, in the test with human mature TGFβ3 [1], the “TGFβ inhibition by HEK-Blue cells (IC50: nM), TGFb3; Blocking: Incomplete” value (“TGFβ inhibition … TGFb3; Blocking: Incomplete” below) was over 667 nM. Also, the “TGFβ inhibition by HEK-Blue cells (IC50: nM), TGFb2; Blocking: Incomplete” value (“TGFβ inhibition … TGFb2; Blocking: Incomplete” below) in test [2] is over 667 nM. Besides, in the test with human mature TGFβ1 [3], the “TGFβ inhibition … TGFb1” value is over 667 nM. For the same molecule, the Kd in the test with human mature TGFβ3 [4] was 0.0144 nM; in test [5] it was 4.6 pM; in the test with human mature TGFβ1 [6] it was over 5 nM. Also, the binding result in the test with human mature TGFβ1 [6] is recorded as “no binding (tested: 5 nM)”.

B3: humanized 4A11 variant 4 (antibody, V domains shown)
VH: EQQLQESGPGLVKPSETLSLTCTVTGFSLSSYTVNWVRQPAGKGLEWIGYISYGGSAYYASWANGRFTISKDSSKNQVSLKLSSVTAADTAVYFCARHMQVGGAPTGSMAAFDPWGPGTLVTVSS
VL: DAQLTQSPSSLSASVGDRVTITCQSSQSVYNNNYLSWFQQKPGKPPKLLIYGASTLTSGVPSRFSGSGSGTDFTLTISSLQPEDFATYYCAGGYSGSSDKYAFGGGTKVEIK
notes: as the VH of m12 (h4A11.v7): rbt4A11 CDRs and rabbit Vernier residues grafted on human germline IGHV4-59*06; as the VL of m7 (h4A11.v2): rbt4A11 CDRs and rabbit Vernier residues grafted on human germline IGKV1D-39*01; human IgG1; also called h4A11.v4; v4; source: Expi293F, transient, purified (Protein A, SEC)
As for B3, the “TGFβ inhibition … TGFb3; Blocking: Complete” value in the test with human mature TGFβ3 [1] was 0.1 nM. Besides, the “TGFβ inhibition … TGFb2; Blocking: Complete” value in test [2] is 1.9 nM. In addition, the “TGFβ inhibition … TGFb1” value in the test with human mature TGFβ1 [3] is over 667 nM. Also, the values for the Kd (with human mature TGFβ3 [4]; in test [5]; in the test with human mature TGFβ1 [6]) were 0.0101 nM, 10 pM and over 5 nM, respectively. In addition, the binding result in the test with human mature TGFβ1 [6] was “no binding (tested: 5 nM)”.

B4: humanized 4A11 variant 8 (antibody, V domains shown)
VH: EQQLQESGPGLVKPSETLSLTCTVTGFSLSSYTVNWVRQPAGKGLEWIGYISYGGSAYYASWANGRFTISKDSSKNQVSLKLSSVTAADTAVYFCARHMQVGGAPTGSMAAFDPWGPGTLVTVSS
VL: DAVLTQTPLSSPVTLGQPASISCQSSQSVYNNNYLSWFQQRPGQPPRLLIYGASTLTSGVPDRFSGSGAGTDFTLKISRVEAEDVGVYYCAGGYSGSSDKYAFGGGTKVEIK
notes: as the VH of m12 (h4A11.v7): rbt4A11 CDRs and rabbit Vernier residues grafted on human germline IGHV4-59*06; as the VL of m11 (h4A11.v6): rbt4A11 CDRs and rabbit Vernier residues grafted on human germline IGKV2-24*01; human IgG1; also called h4A11.v8; v8; source: Expi293F, transient, purified (Protein A, SEC)
Regarding B4, the “TGFβ inhibition … TGFb3; Blocking: Complete” value in the test with human mature TGFβ3 [1] stood at 0.7 nM. The “TGFβ inhibition … TGFb2; Blocking: Complete” value in test [2] is 4.8 nM. Further, the “TGFβ inhibition … TGFb1” value with human mature TGFβ1 [3] is over 667 nM. In addition, the results for the Kd (with human mature TGFβ3 [4]; in test [5]; with human mature TGFβ1 [6]) were 0.0141 nM, 8.2 pM and over 5 nM, respectively. The binding result with human mature TGFβ1 [6] is on record as “no binding (tested: 5 nM)”.

B5: humanized 4A11 variant 7 (antibody, V domains shown)
VH: EQQLQESGPGLVKPSETLSLTCTVTGFSLSSYTVNWVRQPAGKGLEWIGYISYGGSAYYASWANGRFTISKDSSKNQVSLKLSSVTAADTAVYFCARHMQVGGAPTGSMAAFDPWGPGTLVTVSS
VL: EAVLTQSPGTLSLSPGERATLSCQSSQSVYNNNYLSWFQQKPGQPPRLLIYGASTLTSGVPDRFSGSGSGTDFTLTISRLEPEDFAVYYCAGGYSGSSDKYAFGGGTKVEIK
notes: rbt4A11 CDRs (Kabat and Chothia) and rabbit Vernier residues (VH positions 2, 24, 37, 48, 49, 67, 71, 78, 91, 105) grafted on human germline IGHV4-59*06; has S19, S79, K81 (Kabat numbering); rbt4A11 CDRs and rabbit Vernier residues (VL positions 2, 4, 36, 43, 58) grafted on human germline IGKV3-20*01; human IgG1; also called h4A11.v7; v7; source: Expi293F, transient, purified (Protein A, SEC)
As for B5, in the test with human mature TGFβ3 [1], the “TGFβ inhibition … TGFb3; Blocking: Complete” value came to 0.2 nM. In addition, the “TGFβ inhibition … TGFb2; Blocking: Complete” value in test [2] turned out to be 0.9 nM. For the same molecule, in the test with human mature TGFβ1 [3], the “TGFβ inhibition … TGFb1” value was over 667 nM. Also, the Kd with human mature TGFβ3 [4] was 0.0097 nM; in test [5], 6.3 pM; with human mature TGFβ1 [6], over 5 nM. In addition, the binding result with human mature TGFβ1 [6] was “no binding (tested: 5 nM)”.

B6: humanized 4A11 variant 5 (antibody, V domains shown)
VH: EQQLVESGGGLVQPGGSLRLSCAVSGFSLSSYTVNWVRQAPGKGLEWIGYISYGGSAYYASWANGRFTISKDSAKNSVYLQMNSLRAEDTAVYFCARHMQVGGAPTGSMAAFDPWGPGTLVTVSS
VL: EAVLTQSPGTLSLSPGERATLSCQSSQSVYNNNYLSWFQQKPGQPPRLLIYGASTLTSGVPDRFSGSGSGTDFTLTISRLEPEDFAVYYCAGGYSGSSDKYAFGGGTKVEIK
notes: as the VH of m7 (h4A11.v2): rbt4A11 CDRs and rabbit Vernier residues grafted on human germline IGHV3-48*01; as the VL of m12 (h4A11.v7): rbt4A11 CDRs and rabbit Vernier residues grafted on human germline IGKV3-20*01; human IgG1; also called h4A11.v5; v5; source: Expi293F, transient, purified (Protein A, SEC)
For the molecule B6, the “TGFβ inhibition … TGFb3; Blocking: Incomplete” value with human mature TGFβ3 [1] was over 667 nM. The “TGFβ inhibition … TGFb2; Blocking: Incomplete” value in test [2] was over 667 nM. For the same molecule, the “TGFβ inhibition … TGFb1” value in the test with human mature TGFβ1 [3] was over 667 nM. Besides, the Kd in the test with human mature TGFβ3 [4] is 0.0139 nM; in test [5], 12.1 pM; in the test with human mature TGFβ1 [6], over 5 nM. Further, in the test with human mature TGFβ1 [6], the binding result is reported as “no binding (tested: 5 nM)”.

B7: humanized 4A11 variant 6 (antibody, V domains shown)
VH: EQQLVESGGGLVQPGGSLRLSCAVSGFSLSSYTVNWVRQAPGKGLEWIGYISYGGSAYYASWANGRFTISKDSAKNSVYLQMNSLRAEDTAVYFCARHMQVGGAPTGSMAAFDPWGPGTLVTVSS
VL: DAVLTQTPLSSPVTLGQPASISCQSSQSVYNNNYLSWFQQRPGQPPRLLIYGASTLTSGVPDRFSGSGAGTDFTLKISRVEAEDVGVYYCAGGYSGSSDKYAFGGGTKVEIK
notes: as the VH of m7 (h4A11.v2): rbt4A11 CDRs and rabbit Vernier residues grafted on human germline IGHV3-48*01; rbt4A11 CDRs and rabbit Vernier residues (VL positions 2, 4, 36, 43, 58) grafted on human germline IGKV2-24*01; human IgG1; also called h4A11.v6; v6; source: Expi293F, transient, purified (Protein A, SEC)
As for B7, in the test with human mature TGFβ3 [1], the “TGFβ inhibition … TGFb3; Blocking: Incomplete” value was over 667 nM. Further, the “TGFβ inhibition … TGFb2; Blocking: Incomplete” value in test [2] is over 667 nM. The “TGFβ inhibition … TGFb1” value with human mature TGFβ1 [3] was over 667 nM. For the same molecule, the values for the Kd (with human mature TGFβ3 [4]; in test [5]; with human mature TGFβ1 [6]) were 0.0125 nM, 8.4 pM and over 5 nM, respectively. For the same molecule, the binding result in the test with human mature TGFβ1 [6] was “no binding (tested: 5 nM)”.

B8: humanized 4A11 variant 2 (antibody, V domains shown)
VH: EQQLVESGGGLVQPGGSLRLSCAVSGFSLSSYTVNWVRQAPGKGLEWIGYISYGGSAYYASWANGRFTISKDSAKNSVYLQMNSLRAEDTAVYFCARHMQVGGAPTGSMAAFDPWGPGTLVTVSS
VL: DAQLTQSPSSLSASVGDRVTITCQSSQSVYNNNYLSWFQQKPGKPPKLLIYGASTLTSGVPSRFSGSGSGTDFTLTISSLQPEDFATYYCAGGYSGSSDKYAFGGGTKVEIK
notes: rbt4A11 CDRs (Kabat and Chothia) and rabbit Vernier residues (VH positions 2, 24, 37, 48, 49, 67, 71, 78, 91, 105) grafted on human germline IGHV3-48*01; has R19, Y79, Q81 (Kabat numbering); rbt4A11 CDRs and rabbit Vernier residues (VL positions 2, 4, 36, 43, 58) grafted on human germline IGKV1D-39*01; human IgG1; also called h4A11.v2; v2; source: Expi293F, transient, purified (Protein A, SEC)
On to B8, for which, in the test with human mature TGFβ3 [1], the “TGFβ inhibition … TGFb3; Blocking: Incomplete” value is over 667 nM. Further, the “TGFβ inhibition … TGFb2; Blocking: Incomplete” value in test [2] is over 667 nM. Besides, in the test with human mature TGFβ1 [3], the “TGFβ inhibition … TGFb1” value is over 667 nM. Besides, the dissociation constant (Kd) is 0.0133 nM with human mature TGFβ3 [4], 1.4 pM in test [5] and over 5 nM with human mature TGFβ1 [6]. Further, in the test with human mature TGFβ1 [6], the binding result is recorded as “no binding (tested: 5 nM)”.

(Values after PMC8595303, “Dramatic activation of an antibody by a single amino acid change in framework” (Scientific Reports, 2021).)
